US20050260733A1, “Proteases and uses thereof” (WYETH, priority 2004, published 2005)
One block for each molecule: values may come before it.

Legend:
Format in all cases: biochemical
[1] = biological target: bovine aggrecan (Bos taurus, UniProt P13608); test: Competitive inhibition ELISA for aggrecanase activity (MAb AGG-C1); conditions: bovine aggrecan digested 16 h at 37° C.; for amount of enzyme required to generate 45% inhibition in the competitive inhibition ELISA: then MAb AGG-C1 added
Procedure: Streptavidin-coated microtiter plates (Pierce, Rockford, Ill.) were coated with N-terminally biotinylated peptide aggc1 (b-aggc1) by incubating each well with 100 μl of b-aggc1 (100 ng/ml) for 1 h at room temperature. After washing 4 times with phosphate-buffered saline containing 0.01% Tween-20 (PBS-Tween), wells were blocked for 1 h at room temperature with 100 μl of PBS-Tween containing 2% BSA, followed by 4 washes with PBS-Tween.
In order to validate the neoepitope nature of MAb AGG-C1, competition mixtures (100 μl) comprised of MAb AGG-C1 (0.04 μg/ml) and 1.0-1000 nmol/ml of the synthetic peptides GGLPLPRNITEGE (SEQ ID NO:22), GGLPLPRNITEGE ARGSVILTVK-CONH2 (SEQ ID NO:23), undigested aggrecan, or ADAMTS-4 digested aggrecan were preincubated for 1 h at room temperature. Mixtures were then transferred to b-aggc1 coated wells. After a further incubation for 1 h at room temperature, the plates were washed 4 times with PBS-Tween then incubated for 1 h at room temperature with 100 μl of peroxidase-conjugated secondary goat anti-mouse IgG (1:10,000). Following 4 final washes with PBS-Tween, the wells were incubated with TMB 1 component microwell peroxidase substrate (BioFX Laboratories, Owings Mills, Md.). Color development was terminated by the addition of 0.18 M H2SO4, and the absorbance was monitored spectrophotometrically at 450 nm.
For the generation of a standard curve, bovine aggrecan (25 μg in 50 μl) was digested with ADAMTS-4 (0.001 ng-5 ng) for 16 h at 37° C. MAb AGG-C1 was then added to each digest (final antibody concentration of 0.04 μg/ml) and these mixtures were preincubated for 1 h at room temperature, followed by transfer to b-aggc1 coated plates and completion of the ELISA.
The standard curve was generated by incubating bovine aggrecan with increasing amounts of recombinant ADAMTS-4 for 16 h at 37° C. followed by addition of MAb AGG-C1 to each digest. Similar assays were performed to estimate the relative aggrecanase activity of ADAMTS-8.

[2] = biological target: T1, α-2 macroglobulin (Homo sapiens, UniProt P01023); test: α2-macroglobulin assay of proteolytic activity; conditions: purified recombinant protein
T1 sequence (P01023 24-1474): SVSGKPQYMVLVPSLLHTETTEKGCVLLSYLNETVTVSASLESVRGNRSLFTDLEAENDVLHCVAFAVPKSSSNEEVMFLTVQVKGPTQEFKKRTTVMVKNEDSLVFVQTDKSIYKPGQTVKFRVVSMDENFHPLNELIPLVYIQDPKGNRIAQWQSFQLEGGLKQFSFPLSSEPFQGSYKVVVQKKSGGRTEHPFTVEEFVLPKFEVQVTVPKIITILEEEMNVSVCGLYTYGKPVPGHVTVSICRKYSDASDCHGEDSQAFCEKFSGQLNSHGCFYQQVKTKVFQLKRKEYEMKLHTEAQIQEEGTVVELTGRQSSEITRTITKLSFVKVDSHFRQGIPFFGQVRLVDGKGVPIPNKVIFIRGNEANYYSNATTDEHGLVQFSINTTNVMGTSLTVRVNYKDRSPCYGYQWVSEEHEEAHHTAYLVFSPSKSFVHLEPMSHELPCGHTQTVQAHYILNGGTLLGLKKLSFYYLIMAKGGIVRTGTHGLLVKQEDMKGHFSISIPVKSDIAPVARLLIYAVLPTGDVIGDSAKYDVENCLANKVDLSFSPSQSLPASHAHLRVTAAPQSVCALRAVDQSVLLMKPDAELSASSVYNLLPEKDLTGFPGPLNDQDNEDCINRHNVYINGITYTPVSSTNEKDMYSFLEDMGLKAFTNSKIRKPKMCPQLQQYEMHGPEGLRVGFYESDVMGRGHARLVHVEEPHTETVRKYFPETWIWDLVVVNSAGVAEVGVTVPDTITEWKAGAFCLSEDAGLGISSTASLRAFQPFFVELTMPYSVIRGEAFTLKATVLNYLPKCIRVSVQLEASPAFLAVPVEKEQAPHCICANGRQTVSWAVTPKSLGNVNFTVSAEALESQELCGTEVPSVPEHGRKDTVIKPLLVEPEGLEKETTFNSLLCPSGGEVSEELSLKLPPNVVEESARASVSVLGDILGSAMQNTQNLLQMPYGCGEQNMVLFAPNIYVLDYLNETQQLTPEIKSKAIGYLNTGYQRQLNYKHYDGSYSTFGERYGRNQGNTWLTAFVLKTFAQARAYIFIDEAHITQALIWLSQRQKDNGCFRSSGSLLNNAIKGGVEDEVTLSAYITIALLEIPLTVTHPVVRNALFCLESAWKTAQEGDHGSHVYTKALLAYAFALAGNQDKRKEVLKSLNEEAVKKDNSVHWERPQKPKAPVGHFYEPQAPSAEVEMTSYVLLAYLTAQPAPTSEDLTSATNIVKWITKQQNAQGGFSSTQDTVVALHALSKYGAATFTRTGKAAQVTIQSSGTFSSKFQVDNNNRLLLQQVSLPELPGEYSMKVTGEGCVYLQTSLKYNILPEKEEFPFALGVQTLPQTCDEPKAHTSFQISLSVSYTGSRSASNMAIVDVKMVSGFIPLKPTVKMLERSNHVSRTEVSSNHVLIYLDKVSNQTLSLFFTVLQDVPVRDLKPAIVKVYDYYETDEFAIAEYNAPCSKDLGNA

[3] = biological target: T2, Bovine articular cartilage aggrecan (Glu373-Ala374 bond) (Bos taurus, UniProt P13608); test: Western blotting of enzyme-digested aggrecan with neoepitope antibodies (MAb BC-3, MAb AGG-C1, MAb BC-14)
T2 construct: Bovine articular cartilage aggrecan was incubated with purified ADAMTS-8 or ADAMTS-4; from tissue; host or cells: bovine articular cartilage
T2 sequence (P13608 17-2364): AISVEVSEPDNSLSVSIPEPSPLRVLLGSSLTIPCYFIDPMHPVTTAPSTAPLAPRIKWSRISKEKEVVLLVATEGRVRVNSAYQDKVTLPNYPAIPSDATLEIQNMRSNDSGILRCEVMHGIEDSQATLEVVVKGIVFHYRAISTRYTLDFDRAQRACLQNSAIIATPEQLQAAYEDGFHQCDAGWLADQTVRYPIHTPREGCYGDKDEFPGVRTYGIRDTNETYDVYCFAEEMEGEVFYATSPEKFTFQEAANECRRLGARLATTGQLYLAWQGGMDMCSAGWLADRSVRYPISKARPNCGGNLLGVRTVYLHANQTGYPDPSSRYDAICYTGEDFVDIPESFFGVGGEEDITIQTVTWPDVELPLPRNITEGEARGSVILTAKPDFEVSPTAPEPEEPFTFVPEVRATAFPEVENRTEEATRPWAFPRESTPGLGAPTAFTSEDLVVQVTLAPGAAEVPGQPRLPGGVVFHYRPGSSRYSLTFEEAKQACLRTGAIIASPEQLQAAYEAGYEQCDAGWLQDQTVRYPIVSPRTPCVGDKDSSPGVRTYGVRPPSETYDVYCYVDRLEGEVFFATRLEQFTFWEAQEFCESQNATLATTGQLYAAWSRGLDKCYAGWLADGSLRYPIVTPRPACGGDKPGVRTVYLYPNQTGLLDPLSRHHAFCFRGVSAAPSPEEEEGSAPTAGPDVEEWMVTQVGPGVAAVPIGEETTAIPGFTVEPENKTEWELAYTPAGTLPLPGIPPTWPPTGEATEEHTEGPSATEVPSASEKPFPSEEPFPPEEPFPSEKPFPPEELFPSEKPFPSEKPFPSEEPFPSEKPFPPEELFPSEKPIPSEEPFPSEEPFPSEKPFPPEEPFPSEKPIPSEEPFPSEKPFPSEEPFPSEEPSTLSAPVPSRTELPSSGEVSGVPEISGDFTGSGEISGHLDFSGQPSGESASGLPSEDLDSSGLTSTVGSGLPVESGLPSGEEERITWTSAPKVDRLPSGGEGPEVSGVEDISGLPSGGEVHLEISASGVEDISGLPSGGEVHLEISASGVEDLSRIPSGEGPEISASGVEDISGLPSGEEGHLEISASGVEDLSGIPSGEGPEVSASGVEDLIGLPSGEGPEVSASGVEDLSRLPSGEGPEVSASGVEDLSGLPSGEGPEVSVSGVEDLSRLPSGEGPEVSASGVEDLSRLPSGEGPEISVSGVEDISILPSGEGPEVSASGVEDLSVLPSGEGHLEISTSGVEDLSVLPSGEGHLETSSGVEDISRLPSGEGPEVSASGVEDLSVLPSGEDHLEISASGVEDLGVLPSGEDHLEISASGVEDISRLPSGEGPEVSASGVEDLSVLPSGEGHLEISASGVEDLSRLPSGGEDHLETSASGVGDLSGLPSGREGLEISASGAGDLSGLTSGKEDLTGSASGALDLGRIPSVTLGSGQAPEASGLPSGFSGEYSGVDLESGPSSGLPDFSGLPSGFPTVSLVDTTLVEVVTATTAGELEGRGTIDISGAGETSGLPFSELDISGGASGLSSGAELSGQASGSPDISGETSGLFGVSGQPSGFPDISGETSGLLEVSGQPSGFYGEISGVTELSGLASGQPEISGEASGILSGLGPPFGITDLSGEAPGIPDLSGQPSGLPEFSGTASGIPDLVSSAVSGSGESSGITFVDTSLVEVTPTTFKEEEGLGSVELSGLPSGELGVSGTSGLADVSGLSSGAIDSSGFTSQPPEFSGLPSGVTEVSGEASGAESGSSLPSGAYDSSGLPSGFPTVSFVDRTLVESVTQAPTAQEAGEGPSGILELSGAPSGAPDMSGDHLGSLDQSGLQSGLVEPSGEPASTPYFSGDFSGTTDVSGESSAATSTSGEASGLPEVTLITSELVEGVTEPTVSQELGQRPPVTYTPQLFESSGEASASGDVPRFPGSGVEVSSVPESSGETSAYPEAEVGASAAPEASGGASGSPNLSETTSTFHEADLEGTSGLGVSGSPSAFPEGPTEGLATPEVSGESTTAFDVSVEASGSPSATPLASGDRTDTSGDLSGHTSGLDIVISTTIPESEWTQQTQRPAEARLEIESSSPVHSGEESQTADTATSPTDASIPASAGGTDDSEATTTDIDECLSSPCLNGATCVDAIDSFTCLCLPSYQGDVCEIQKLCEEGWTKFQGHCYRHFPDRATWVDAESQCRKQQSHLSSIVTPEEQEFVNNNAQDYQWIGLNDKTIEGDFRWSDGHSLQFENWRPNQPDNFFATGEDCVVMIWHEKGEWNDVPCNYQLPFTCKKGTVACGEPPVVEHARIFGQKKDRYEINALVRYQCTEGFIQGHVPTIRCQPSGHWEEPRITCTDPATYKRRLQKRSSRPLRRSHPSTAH
Procedure: Detailed procedures for Western blot analyses are set forth below. Bovine articular cartilage aggrecan was incubated with purified ADAMTS-8 or ADAMTS-4 for 16 h at 37° C. in 50 mM Tris, pH 7.3, containing 100 mM NaCl and 5 mM CaCl2. Digestion products were deglycosylated by incubation for 2 h at 37° C. in the presence of chondroitinase ABC (Seikagaku America, Falmouth, Mass.; 1 mU/μg aggrecan), keratanase (Seikagaku; 1 mU/μg aggrecan) and keratanase II (Seikagaku; 0.02 mU/μg aggrecan). Digestion products were separated on 4-12% Bis-Tris NuPAGE SDS PAGE gels (Invitrogen, Carlsbad, Calif.) and then electrophoretically transferred to nitrocellulose. Immunoreactive products were detected by Western blotting with MAb AGG-C1 (0.04 μg/ml) or MAb BC-3 (Caterson, et al., supra). Alkaline-phosphatase-conjugated secondary goat anti-mouse IgG (Promega Corp., Madison, Wis.; 1:7500) was subsequently incubated with the membranes, and NBT/BCIP substrate (Promega) was used to visualize immunoreactive bands. All antibody incubations were performed for 1 h at room temperature, and the immunoblots were incubated with the substrate for 5-15 min at room temperature to achieve optimum color development.

Chain of bovine aggrecan (P13608 17-2364): as above

amount of enzyme required to generate aggrecan cleavage product giving 45% inhibition in the competitive inhibition ELISA ([1]; FIG. 7 standard curve): approximately 1 ng
amount of enzyme required to generate 45% inhibition in the competitive inhibition ELISA [1]: 0.0135 pM
B1: ADAMTS-4: Recombinant ADAMTS-4 used for comparison, spontaneously truncated and lacking the spacer domain (protein)
chain: FASLSRFVETLVVADDKMAAFHGAGLKRYLLTVMAAAAKAFKHPSIRNPVSLVVTRLVILGSGEEGPQVGPSAAQTLRSFCAWQRGLNTPEDSDPDHFDTAILFTRQDLCGVSTCDTLGMADVGTVCDPARSCAIVEDDGLQSAFTAAHELGHVFNMLHDNSKPCISLNGPLSTSRHVMAPVMAHVDPEEPWSPCSARFITDFLDNGYGHCLLDKPEAPLHLPVTFPGKDYDADRQCQLTFGPDSRHCPQLPPPCAALWCSGHLNGHAMCQTKHSPWADGTPCGPAQACMGGRCLHMDQLQDFNIPQAGGWGPWGPWGDCSRTCGGGVQFSSRDCTRPVPRNGGKYCEGRRTRFRSCNTEDCPTGSALTFREEQCAAYNHRTDLFKSFPGPMDWVPRYTGVAPQDQCKLTCQAQALGYYYVLEPRVVDGTPCSPDSSSVCVQGRCIHAGCDRIIGSKKKFDKCMVCGGDGSGCSKQSGSFRK

proteolytic activity by α2-macroglobulin assay [2]: active
B2: C-terminally truncated ADAMTS-8: Recombinant ADAMTS-8 in which the C-terminal thrombospondin and spacer domains were deleted (protein)
chain: MLPAPAAPRWPPLLLLLLLLLLPLARGAPARPAAGGQASELVVPTRLPGSAGELALHLSAFGKGFVLRLAPDDSFLAPEFKIERLGGSGRATGGERGLRGCFFSGTVNGEPESLAAVSLCRGLSGSFLLDGEEFTIQPQGAGGSLAQPHRLQRWGPAGARPLPRGPEWEVETGEGQRQERGDHQEDSEEESQEEEAEGASEPPPPLGATSRTKRFVSEARFVETLLVADASMAAFYGADLQNHILTLMSVAARIYKHPSIKNSINLMVVKVLIVEDEKWGPEVSDNGGLTLRNFCNWQRRFNQPSDRHPEHYDTAILLTRQNFCGQEGLCDTLGVADIGTICDPNKSCSVIEDEGLQAAHTLAHELGHVLSMPHDDSKPCTRLFGPMGKHHVMAPLFVHLNQTLPWSPCSAMYLTELLDGGHGDCLLDAPRAALPLPTGLPGRMALYQLDQQCRQIFGPDFRHCPNTSAQDVCAQLWCHTDGAEPLCHTKNGSLPWADGTPCGPGHLCSEGSCLPEEEVERPKPVADGGWAPWGPWGECSRTCGGGVQFSHRECKDPEPQNGGRYCLGRRAKYQSCHTEECPPDGKSFREQQCEKYNAYNYTDMDGNLLQWVPKYAGVSPRDRCKLFCRARGRSEFKVFEAKVIDGTLCGPETLAICVRGQCVKAGCDHVVDSPRKLDKCGVCGGKGNSCRKVSGSLTPTNYGYNDIVTIPAGATNIDVKQRSHPGVQNDGNYLALKTADGQYLLNGNLAISAIEQDILVKGTILKYSGSIATLERLQSFRPLPEPLTVQLLTVPGEVFPPKVKYTFFVPNDVDFSMQSSKERATTNIIQPLLHAQWVLGDWSECSSTCGAGWQRRTVECRDPSGQASATCNKALKPEDAKPCESQLCPL
activity on aggrecan substrate compared with full-length recombinant ADAMTS-8 ([3]; AGG-C1 Western blotting): no more active than full-length recombinant ADAMTS-8

proteolytic activity by α2-macroglobulin assay [2]: verified
efficiency of cleaving cartilage aggrecan at Glu373-Ala374 compared with ADAMTS-4 ([3]; same Western blots, FIGS. 6A-6C): less efficient than ADAMTS4
amount of enzyme required to generate 45% inhibition in the competitive inhibition ELISA [1]: 46.6 ± 4.8 pM
B3: ADAMTS-8: Recombinant human full-length ADAMTS-8 with carboxy-terminal Strep-tag expressed in CHO cells; elution fraction holds pro- and mature forms (protein)
chain: RFVSEARFVETLLVADASMAAFYGADLQNHILTLMSVAARIYKHPSIKNSINLMVVKVLIVEDEKWGPEVSDNGGLTLRNFCNWQRRFNQPSDRHPEHYDTAILLTRQNFCGQEGLCDTLGVADIGTICDPNKSCSVIEDEGLQAAHTLAHELGHVLSMPHDDSKPCTRLFGPMGKHHVMAPLFVHLNQTLPWSPCSAMYLTELLDGGHGDCLLDAPRAALPLPTGLPGRMALYQLDQQCRQIFGPDFRHCPNTSAQDVCAQLWCHTDGAEPLCHTKNGSLPWADGTPCGPGHLCSEGSCLPEEEVERPKPVADGGWAPWGPWGECSRTCGGGVQFSHRECKDPEPQNGGRYCLGRRAKYQSCHTEECPPDGKSFREQQCEKYNAYNYTDMDGNLLQWVPKYAGVSPRDRCKLFCRARGRSEFKVFEAKVIDGTLCGPETLAICVRGQCVKAGCDHVVDSPRKLDKCGVCGGKGNSCRKVSGSLTPTNYGYNDIVTIPAGATNIDVKQRSHPGVQNDGNYLALKTADGQYLLNGNLAISAIEQDILVKGTILKYSGSIATLERLQSFRPLPEPLTVQLLTVPGEVFPPKVKYTFFVPNDVDFSMQSSKERATTNIIQPLLHAQWVLGDWSECSSTCGAGWQRRTVECRDPSGQASATCNKALKPEDAKPCESQLCPLGSGSAWSHPQFEK
cleavage site specificity of aggrecanase activity ([3]; BC-3 and AGG-C1 Western blots): specific for the Glu^373-Ala^374 site
MAb BC-3 immunoreactive bands (cleavage at Glu373-Ala374) ([3]; MAb BC-3 Western blot, 16 h at 37° C.): increased in intensity with increasing amounts
